B1: Pachytene checkpoint protein 2 homolog (Homo sapiens), Q15645 (parent)
chain: MDEAVGDLKQALPCVAESPTVHVEVHQRGSSTAKKEDINLSVRKLLNRHNIVFGDYTWTEFDEPFLTRNVQSVSIIDTELKVKDSQPIDLSACTVALHIFQLNEDGPSSENLEEETENIIAANHWVLPAAEFHGLWDSLVYDVEVKSHLLDYVMTTLLFSDKNVNSNLITWNRVVLLHGPPGTGKTSLCKALAQKLTIRLSSRYRYGQLIEINSHSLFSKWFSESGKLVTKMFQKIQDLIDDKDALVFVLIDEVESLTAARNACRAGTEPSDAIRVVNAVLTQIDQIKRHSNVVILTTSNITEKIDVAFVDRADIKQYIGPPSAAAIFKIYLSCLEELMKCQIIYPRQQLLTLRELEMIGFIENNVSKLSLLLNDISRKSEGLSGRVLRKLPFLAHALYVQAPTVTIEGFLQALSLAVDKQFEERKKLAAYI
partner: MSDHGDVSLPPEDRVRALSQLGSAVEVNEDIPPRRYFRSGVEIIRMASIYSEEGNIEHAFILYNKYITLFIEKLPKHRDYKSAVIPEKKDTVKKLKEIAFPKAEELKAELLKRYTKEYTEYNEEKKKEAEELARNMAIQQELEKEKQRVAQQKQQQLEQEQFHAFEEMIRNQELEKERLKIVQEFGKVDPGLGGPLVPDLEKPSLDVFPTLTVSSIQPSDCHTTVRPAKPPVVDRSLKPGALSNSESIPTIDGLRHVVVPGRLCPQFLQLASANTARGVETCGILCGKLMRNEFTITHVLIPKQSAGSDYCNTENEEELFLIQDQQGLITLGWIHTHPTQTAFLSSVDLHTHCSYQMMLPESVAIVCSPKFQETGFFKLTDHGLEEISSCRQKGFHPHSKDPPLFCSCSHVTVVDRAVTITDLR
B2: Serine/threonine-protein kinase PAK 5 (Homo sapiens), Q9P286 (parent)
chain: MFGKKKKKIEISGPSNFEHRVHTGFDPQEQKFTGLPQQWHSLLADTANRPKPMVDPSCITPIQLAPMKTIVRGNKPCKETSINGLLEDFDNISVTRSNSLRKESPPTPDQGASSHGPGHAEENGFITFSQYSSESDTTADYTTEKYREKSLYGDDLDPYYRGSHAAKQNGHVMKMKHGEAYYSEVKPLKSDFARFSADYHSHLDSLSKPSEYSDLKWEYQRASSSSPLDYSFQFTPSRTAGTSGCSKESLAYSESEWGPSLDDYDRRPKSSYLNQTSPQPTMRQRSRSGSGLQEPMMPFGASAFKTHPQGHSYNSYTYPRLSEPTMCIPKVDYDRAQMVLSPPLSGSDTYPRGPAKLPQSQSKSGYSSSSHQYPSGYHKATLYHHPSLQSSSQYISTASYLSSLSLSSSTYPPPSWGSSSDQQPSRVSHEQFRAALQLVVSPGDPREYLANFIKIGEGSTGIVCIATEKHTGKQVAVKKMDLRKQQRRELLFNEVVIMRDYHHDNVVDMYSSYLVGDELWVVMEFLEGGALTDIVTHTRMNEEQIATVCLSVLRALSYLHNQGVIHRDIKSDSILLTSDGRIKLSDFGFCAQVSKEVPKRKSLVGTPYWMAPEVISRLPYGTEVDIWSLGIMVIEMIDGEPPYFNEPPLQAMRRIRDSLPPRVKDLHKVSSVLRGFLDLMLVREPSQRATAQELLGHPFLKLAGPPSCIVPLMRQYRHH
partner: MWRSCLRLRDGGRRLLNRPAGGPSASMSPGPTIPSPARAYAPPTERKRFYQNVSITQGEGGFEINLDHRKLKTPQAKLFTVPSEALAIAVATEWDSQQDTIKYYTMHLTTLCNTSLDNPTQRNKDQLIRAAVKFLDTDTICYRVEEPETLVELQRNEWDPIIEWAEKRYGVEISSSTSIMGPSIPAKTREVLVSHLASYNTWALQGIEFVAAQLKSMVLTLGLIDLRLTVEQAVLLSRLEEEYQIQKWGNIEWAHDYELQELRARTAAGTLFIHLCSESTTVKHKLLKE
B3: WASH complex subunit 3 (Homo sapiens), Q9Y3C0 (parent)
chain: MDEDGLPLMGSGIDLTKVPAIQQKRTVAFLNQFVVHTVQFLNRFSTVCEEKLADLSLRIQQIETTLNILDAKLSSIPGLDDVTVEVSPLNVTSVTNGAHPEATSEQPQQNSTQDSGLQESEVSAENILTVAKDPRYARYLKMVQVGVPVMAIRNKMISEGLDPDLLERPDAPVPDGESEKTVEESSDSESSFSD
partner: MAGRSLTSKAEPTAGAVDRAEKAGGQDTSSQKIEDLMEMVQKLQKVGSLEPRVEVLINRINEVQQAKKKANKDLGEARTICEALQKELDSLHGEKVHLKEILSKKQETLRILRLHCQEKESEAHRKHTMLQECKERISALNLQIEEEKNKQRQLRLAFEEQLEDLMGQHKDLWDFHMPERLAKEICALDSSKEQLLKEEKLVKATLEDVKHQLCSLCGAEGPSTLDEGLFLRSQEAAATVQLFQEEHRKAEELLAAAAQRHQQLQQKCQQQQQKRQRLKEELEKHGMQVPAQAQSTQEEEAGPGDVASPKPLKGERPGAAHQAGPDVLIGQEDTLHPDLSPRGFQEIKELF
B4: Protein FAM168A (Homo sapiens), Q92567 (parent)
chain: MNPVYSPVQPGAPYGNPKNMAYTGYPTAYPAAAPAYNPSLYPTNSPSYAPEFQFLHSAYATLLMKQAWPQNSSSCGTEGTFHLPVDTGTENRTYQASSAAFRYTAGTPYKVPPTQSNTAPPPYSPSPNPYQTAMYPIRSAYPQQNLYAQGAYYTQPVYAAQPHVIHHTTVVQPNSIPSAIYPAPVAAPRTNGVAMGMVAGTTMAMSAGTLLTTPQHTAIGAHPVSMPTYRAQGTPAYSYVPPHW
B5: Syntaxin-3 (Homo sapiens), Q13277 (parent)
chain: MKDRLEQLKAKQLTQDDDTDAVEIAIDNTAFMDEFFSEIEETRLNIDKISEHVEEAKKLYSIILSAPIPEPKTKDDLEQLTTEIKKRANNVRNKLKSMEKHIEEDEVRSSADLRIRKSQHSVLSRKFVEVMTKYNEAQVDFRERSKGRIQRQLEITGKKTTDEELEEMLESGNPAIFTSGIIDSQISKQALSEIEGRHKDIVRLESSIKELHDMFMDIAMLVENQGEMLDNIELNVMHTVDHVEKARDETKKAVKYQSQARKKLIIIIVLVVVLLGILALIIGLSVGLN
B6: Thioredoxin-dependent peroxide reductase, mitochondrial (Homo sapiens), P30048 (parent)
chain: MAAAVGRLLRASVARHVSAIPWGISATAALRPAACGRTSLTNLLCSGSSQAKLFSTSSSCHAPAVTQHAPYFKGTAVVNGEFKDLSLDDFKGKYLVLFFYPLDFTFVCPTEIVAFSDKANEFHDVNCEVVAVSVDSHFSHLAWINTPRKNGGLGHMNIALLSDLTKQISRDYGVLLEGSGLALRGLFIIDPNGVIKHLSVNDLPVGRSVEETLRLVKAFQYVETHGEVCPANWTPDSPTIKPSPAASKEYFQKVNQ
B7: Coiled-coil domain-containing protein 92 (Homo sapiens), Q53HC0 (parent)
chain: MTSPHFSSYDEGPLDVSMAATNLENQLHSAQKNLLFLQREHASTLKGLHSEIRRLQQHCTDLTYELTVKSSEQTGDGTSKSSELKKRCEELEAQLKVKENENAELLKELEQKNAMITVLENTIKEREKKYLEELKAKSHKLTLLSSELEQRASTIAYLTSQLHAAKKKLMSSSGTSDASPSGSPVLASYKPAPPKDKLPETPRRRMKKSLSAPLHPEFEEVYRFGAESRKLLLREPVDAMPDPTPFLLARESAEVHLIKERPLVIPPIASDRSGEQHSPAREKPHKAHVGVAHRIHHATPPQAQPEVKTLAVDQVNGGKVVRKHSGTDRTV
partner: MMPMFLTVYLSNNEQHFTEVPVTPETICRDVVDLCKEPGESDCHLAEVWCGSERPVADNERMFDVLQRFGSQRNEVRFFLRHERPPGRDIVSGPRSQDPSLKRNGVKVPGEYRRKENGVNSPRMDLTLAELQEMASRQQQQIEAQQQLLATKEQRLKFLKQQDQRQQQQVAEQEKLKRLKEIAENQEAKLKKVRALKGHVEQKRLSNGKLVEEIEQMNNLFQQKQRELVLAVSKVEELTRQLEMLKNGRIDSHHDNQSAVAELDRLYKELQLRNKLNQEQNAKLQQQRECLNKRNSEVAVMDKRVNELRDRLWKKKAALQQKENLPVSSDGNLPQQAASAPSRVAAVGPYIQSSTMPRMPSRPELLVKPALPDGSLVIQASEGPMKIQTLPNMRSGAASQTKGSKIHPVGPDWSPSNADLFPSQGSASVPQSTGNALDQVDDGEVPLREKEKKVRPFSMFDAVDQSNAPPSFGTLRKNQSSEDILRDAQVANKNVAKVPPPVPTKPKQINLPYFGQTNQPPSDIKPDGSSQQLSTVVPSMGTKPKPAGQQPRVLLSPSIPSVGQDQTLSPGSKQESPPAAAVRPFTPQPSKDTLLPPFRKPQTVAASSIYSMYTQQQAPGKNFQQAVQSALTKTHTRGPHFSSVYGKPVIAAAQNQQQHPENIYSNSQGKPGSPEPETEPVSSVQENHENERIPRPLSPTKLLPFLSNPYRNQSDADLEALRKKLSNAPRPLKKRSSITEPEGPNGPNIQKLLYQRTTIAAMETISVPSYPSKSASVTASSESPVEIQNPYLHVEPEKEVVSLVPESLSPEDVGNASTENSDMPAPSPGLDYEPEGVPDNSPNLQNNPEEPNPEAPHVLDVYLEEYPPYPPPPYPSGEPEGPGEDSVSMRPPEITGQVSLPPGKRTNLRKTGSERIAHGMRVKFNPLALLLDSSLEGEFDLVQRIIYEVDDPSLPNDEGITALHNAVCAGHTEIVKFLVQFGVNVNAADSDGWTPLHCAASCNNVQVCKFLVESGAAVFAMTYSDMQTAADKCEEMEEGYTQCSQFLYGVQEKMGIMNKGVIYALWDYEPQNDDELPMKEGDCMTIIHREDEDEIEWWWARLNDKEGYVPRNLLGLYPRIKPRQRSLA
B8: Splicing factor 45 (Homo sapiens), Q96I25 (parent)
chain: MSLYDDLGVETSDSKTEGWSKNFKLLQSQLQVKKAALTQAKSQRTKQSTVLAPVIDLKRGGSSDDRQIVDTPPHVAAGLKDPVPSGFSAGEVLIPLADEYDPMFPNDYEKVVKRQREERQRQRELERQKEIEEREKRRKDRHEASGFARRPDPDSDEDEDYERERRKRSMGGAAIAPPTSLVEKDKELPRDFPYEEDSRPRSQSSKAAIPPPVYEEQDRPRSPTGPSNSFLANMGGTVAHKIMQKYGFREGQGLGKHEQGLSTALSVEKTSKRGGKIIVGDATEKDASKKSDSNPLTEILKCPTKVVLLRNMVGAGEVDEDLEVETKEECEKYGKVGKCVIFEIPGAPDDEAVRIFLEFERVESAIKAVVDLNGRYFGGRVVKACFYNLDKFRVLDLAEQV
B9: Kappa-casein (Homo sapiens), P07498 (parent)
chain: MKSFLLVVNALALTLPFLAVEVQNQKQPACHENDERPFYQKTAPYVPMYYVPNSYPYYGTNLYQRRPAIAINNPYVPRTYYANPAVVRPHAQIPQRQYLPNSHPPTVVRRPNLHPSFIAIPPKKIQDKIIIPTINTIATVEPTPAPATEPTVDSVVTPEAFSESIITSTPETTTVAVTPPTA

Variants of: B1
Details: with stabp_human STAMBP

effect of a mutation on the interaction | Variant
with no effect | G409E

Variants of: B2
Details: with atpf2_human ATPAF2, Q8N5M1

effect of a mutation on the interaction | Variant
with no effect | R335P

Variants of: B3
Details: with syce1_human SYCE1, Q8N0S2

effect of a mutation on the interaction | Variant
with no effect | F44L

Variants of: B4
Details: with ru1c_human SNRPC

effect of a mutation on the interaction | Variant
with no effect | P122R

Variants of: B4
Details: with ubs3b_human UBASH3B

effect of a mutation on the interaction | Variant
disrupting interaction strength | P122R

Variants of: B4
Details: with ub2v1_human UBE2V1, Q13404
ub2v1_human UBE2V1, Q13404, sequence (Q13404 whole entry): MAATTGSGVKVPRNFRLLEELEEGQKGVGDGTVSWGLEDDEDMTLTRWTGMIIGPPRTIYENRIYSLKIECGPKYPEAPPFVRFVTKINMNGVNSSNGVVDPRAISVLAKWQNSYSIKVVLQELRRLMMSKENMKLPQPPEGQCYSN

effect of a mutation on the interaction | Variant
disrupting interaction strength | P122R

Variants of: B5
Details: with stx4_human STX4, Q12846
stx4_human STX4, Q12846, sequence (Q12846 whole entry): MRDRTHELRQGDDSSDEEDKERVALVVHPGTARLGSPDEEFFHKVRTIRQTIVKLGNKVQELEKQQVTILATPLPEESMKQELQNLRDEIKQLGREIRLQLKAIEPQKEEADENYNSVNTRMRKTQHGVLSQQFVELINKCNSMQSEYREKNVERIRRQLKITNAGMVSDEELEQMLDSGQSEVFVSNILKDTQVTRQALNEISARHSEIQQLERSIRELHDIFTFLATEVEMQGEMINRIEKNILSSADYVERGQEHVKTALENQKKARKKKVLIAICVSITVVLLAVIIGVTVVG

effect of a mutation on the interaction | Variant
with no effect | G276S
disrupting interaction strength | H198Y

Variants of: B6
Details: with gors2_human GORASP2, Q9H8Y8

effect of a mutation on the interaction | Variant
with no effect | G173C

Variants of: B7
Details: with aspp2_human TP53BP2, Q13625

effect of a mutation on the interaction | Variant
with no effect | S70C

Variants of: B8
Details: with sat1_human SAT1, P21673
sat1_human SAT1, P21673, sequence (P21673 whole entry): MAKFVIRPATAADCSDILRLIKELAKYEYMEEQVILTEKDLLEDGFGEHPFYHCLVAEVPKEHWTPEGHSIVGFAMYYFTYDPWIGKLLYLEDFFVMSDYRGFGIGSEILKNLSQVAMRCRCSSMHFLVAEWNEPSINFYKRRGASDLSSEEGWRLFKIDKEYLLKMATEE

effect of a mutation on the interaction | Variant
with no effect | T224I

Variants of: B9
Details: with rbpms_human RBPMS

effect of a mutation on the interaction | Variant
with no effect | R96L

Variants of: B9
Details: with dmrtb_human DMRTB1, Q96MA1
dmrtb_human DMRTB1, Q96MA1, sequence (Q96MA1 whole entry): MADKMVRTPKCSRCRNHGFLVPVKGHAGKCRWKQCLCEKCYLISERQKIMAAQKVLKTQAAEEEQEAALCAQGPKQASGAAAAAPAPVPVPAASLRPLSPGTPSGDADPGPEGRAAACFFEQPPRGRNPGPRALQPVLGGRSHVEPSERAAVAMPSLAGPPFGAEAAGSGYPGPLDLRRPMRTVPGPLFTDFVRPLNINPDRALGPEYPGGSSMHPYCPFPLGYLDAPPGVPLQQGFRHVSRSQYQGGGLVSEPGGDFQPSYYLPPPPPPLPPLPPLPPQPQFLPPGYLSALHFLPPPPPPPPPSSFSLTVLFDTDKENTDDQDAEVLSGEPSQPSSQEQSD

effect of a mutation on the interaction | Variant
with no effect | R96L
